Data reported in article PMC3439536.

B1: 25bp adenoviral E1a DNA (dsDNA)
DNA 1: TTCTATGCCAAACCTTGTGCCGGAG
DNA 2: CTCCGGCACAAGGTTTGGCATAGAA
B2: 50% CpG rich DNA (dsDNA)
DNA 1: TTCGATCGCACGCCCG
DNA 2: CGGGCGTGCGATCGAA
B3: 15bp adenoviral E1a DNA (dsDNA)
DNA 1: TTCTATGCCAAACCT
DNA 2: AGGTTTGGCATAGAA
B4: 16bp scrambled DNA (dsDNA)
DNA 1: ATGCATGCTGACTACG
DNA 2: CGTAGTCAGCATGCAT

Each binder was assayed against CR2 SCR1-4-BCCP (Homo sapiens, UniProt P20023 21-273) (assay: SPR).
Sequence of CR2 SCR1-4-BCCP (P20023 21-273): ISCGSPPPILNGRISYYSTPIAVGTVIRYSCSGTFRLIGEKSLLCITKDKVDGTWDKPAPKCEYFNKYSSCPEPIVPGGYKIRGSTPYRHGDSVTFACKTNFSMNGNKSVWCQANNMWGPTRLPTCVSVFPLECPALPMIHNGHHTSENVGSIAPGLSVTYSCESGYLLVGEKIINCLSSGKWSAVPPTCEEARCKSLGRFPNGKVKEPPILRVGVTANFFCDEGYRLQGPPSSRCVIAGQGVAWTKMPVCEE

Binder	Kd
B1	358 nM
B2	509 nM
B3	245 nM
B4	266 nM
